The record followed here is the supplement of paper PMC5998384.

Data set [1] deals with HeLa Kyoto. Briefly: solubility in G1/S (NP-40 vs SDS abundance) (log2 ratio); higher = more soluble. Particulars: cell cycle stage: G1/S.
Data set [2] deals with HeLa Kyoto. Briefly: melting temperature (median over replicates), in situ; higher = more thermally stable.
Data set [3] has as its system HeLa Kyoto. Briefly: solubility change mitosis vs G1/S (difference of NP-40 vs SDS log2 ratios) (log2 ratio difference); higher = more soluble in mitosis.
Data set [4] deals with HeLa Kyoto. Briefly: thermal stability score vs G1/S (z-score of summed log2 fold changes over temperatures); higher = more thermally stable than in G1/S.
Setting [5] is: cell cycle stage: early G1 (4.5 h after nocodazole release).
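For melting temperature (median over replicates), in situ in this document: HeLa Kyoto cells synchronized by double thymidine or nocodazole block, proteins quantified by TMT10plex mass spectrometry, three independent biological replicates.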
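For solubility change mitosis vs G1/S (difference of NP-40 vs SDS log2 ratios) in this document: synchronized HeLa Kyoto cells (double thymidine block for G1/S, nocodazole release for mitosis), protein amounts in NP-40 versus SDS lysates quantified by mass spectrometry, three biological replicates.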
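For solubility in G1/S (NP-40 vs SDS abundance) in this document: HeLa Kyoto cells arrested at G1/S by double thymidine block, proteins quantified by TMT10plex mass spectrometry in mild NP-40 versus SDS extracts, three biological replicates.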
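For thermal stability score vs G1/S (z-score of summed log2 fold changes over temperatures) in this document: synchronized HeLa Kyoto cells, proteins quantified by TMT10plex mass spectrometry, three biological replicates, mitosis taken 0.5 h after nocodazole release, G1/S directly after double thymidine block.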

On to “MPAVSLPPKENALFKRILRCYEHKQYRNGLKFCKQILSNPKFAEHGETLAMKGLTLNCLGKKEEAYELVRRGLRNDLKSHVCWHVYGLLQRSDKKYDEAIKCYRNALKWDKDNLQILRDLSLLQIQMRDLEGYRETRYQLLQLRPAQRASWIGYAIAYHLLEDYEMAAKILEEFRKTQQTSPDKVDYEYSELLLYQNQVLREAGLYREALEHLCTYEKQICDKLAVEETKGELLLQLCRLEDAADVYRGLQERNPENWAYYKGLEKALKPANMLERLKIYEEAWTKYPRGLVPRRLPLNFLSGEKFKECLDKFLRMNFSKGCPPVFNTLRSLYKDKEKVAIIEELVVGYETSLKSCRLFNPNDDGKEEPPTTLLWVQYYLAQHYDKIGQPSIALEYINTAIESTPTLIELFLVKAKIYKHAGNIKEAARWMDEAQALDTADRFINSKCAKYMLKANLIKEAEEMCSKFTREGTSAVENLNEMQCMWFQTECAQAYKAMNKFGEALKKCHEIERHFIEITDDQFDFHTYCMRKITLRSYVDLLKLEDVLRQHPFYFKAARIAIEIYLKLHDNPLTDENKEHEADTANMSDKELKKLRNKQRRAQKKAQIEEEKKNAEKEKQQRNQKKKKDDDDEEIGGPKEELIPEKLAKVETPLEEAIKFLTPLKNLVKNKIETHLFAFEIYFRKEKFLLMLQSVKRAFAIDSSHPWLHECMIRLFNTAVCESKDLSDTVRTVLKQEMNRLFGATNPKNFNETFLKRNSDSLPHRLSAAKMVYYLDPSSQKRAIELATTLDESLTNRNLQTCMEVLEALYDGSLGDCKEAAEIYRANCHKLFPYALAFMPPGYEEDMKITVNGDSSAEAEELANEI [NAA15]”, for which the “solubility in G1/S (log2)” value in the data set on HeLa Kyoto [1] is -0.262. Also, the melting temperature is 53.9 °C with HeLa Kyoto [2] (cell cycle stage: G1/S) and 52.5 °C with HeLa Kyoto [2] (cell cycle stage: mitosis). Also, the “solubility change mitosis (log2)” value with HeLa Kyoto [3] is -0.124. For the same sequence, the thermal stability score in the data set with HeLa Kyoto [4] (setting [5]) is 0.92; in the data set with HeLa Kyoto [4] (cell cycle stage: mitosis), -0.18.

“MPTTIEREFEELDTQRRWQPLYLEIRNESHDYPHRVAKFPENRNRNRYRDVSPYDHSRVKLQNAENDYINASLVDIEEAQRSYILTQGPLPNTCCHFWLMVWQQKTKAVVMLNRIVEKESVKCAQYWPTDDQEMLFKETGFSVKLLSEDVKSYYTVHLLQLENINSGETRTISHFHYTTWPDFGVPESPASFLNFLFKVRESGSLNPDHGPAVIHCSAGIGRSGTFSLVDTCLVLMEKGDDINIKQVLLNMRKYRMGLIQTPDQLRFSYMAIIEGAKCIKGDSSIQKRWKELSKEDLSPAFDHSPNKIMTEKYNGNRIGLEEEKLTGDRCTGLSSKMQDTMEENSESALRKRIREDRKATTAQKVQQMKQRLNENERKRKRWLYWQPILTKMGFMSVILVGAFVGWTLFFQQNAL [PTPN2]”: in the data set on HeLa Kyoto [1], the “solubility in G1/S (log2)” value came to 0.0769. For the same sequence, the melting temperature with HeLa Kyoto [2] (cell cycle stage: G1/S) amounted to 49 °C; in the data set on HeLa Kyoto [2] (cell cycle stage: mitosis), 49.2 °C. Moreover, in the data set on HeLa Kyoto [3], the “solubility change mitosis (log2)” value was -0.142. Besides, the thermal stability score with HeLa Kyoto [4] (setting [5]) stood at 0.409; in the data set with HeLa Kyoto [4] (cell cycle stage: mitosis), 1.35.

Take “MYALFLLASLLGAALAGPVLGLKECTRGSAVWCQNVKTASDCGAVKHCLQTVWNKPTVKSLPCDICKDVVTAAGDMLKDNATEEEILVYLEKTCDWLPKPNMSASCKEIVDSYLPVILDIIKGEMSRPGEVCSALNLCESLQKHLAELNHQKQLESNKIPELDMTEVVAPFMANIPLLLYPQDGPRSKPQPKDNGDVCQDCIQMVTDIQTAVRTNSTFVQALVEHVKEECDRLGPGMADICKNYISQYSEIAIQMMMHMQPKEICALVGFCDEVKEMPMQTLVPAKVASKNVIPALELVEPIKKHEVPAKSDVYCEVCEFLVKEVTKLIDNNKTEKEILDAFDKMCSKLPKSLSEECQEVVDTYGSSILSILLEEVSPELVCSMLHLCSGTRLPALTVHVTQPKDGGFCEVCKKLVGYLDRNLEKNSTKQEILAALEKGCSFLPDPYQKQCDQFVAEYEPVLIEILVEVMDPSFVCLKIGACPSAHKPLLGTEKCIWGPSYWCQNTETAAQCNAVEHCKRHVWN [PSAP]”: the “solubility in G1/S (log2)” value with HeLa Kyoto [1] amounted to 0.0145. For the same sequence, the melting temperature in the data set with HeLa Kyoto [2] (cell cycle stage: G1/S) amounted to 58.6 °C; with HeLa Kyoto [2] (cell cycle stage: mitosis) it was 56.3 °C. Besides, in the data set on HeLa Kyoto [3], the “solubility change mitosis (log2)” value was 0.32. Also, the results for the thermal stability score with HeLa Kyoto [4] (setting [5]) and with HeLa Kyoto [4] (cell cycle stage: mitosis) were -1.22 and -0.0458, respectively.

For the sequence “MDAAEVEFLAEKELVTIIPNFSLDKIYLIGGDLGPFNPGLPVEVPLWLAINLKQRQKCRLLPPEWMDVEKLEKMRDHERKEETFTPMPSPYYMELTKLLLNHASDNIPKADEIRTLVKDMWDTRIAKLRVSADSFVRQQEAHAKLDNLTLMEINTSGTFLTQALNHMYKLRTNLQPLESTQSQDF [GINS2]”, in the data set on HeLa Kyoto [1], the “solubility in G1/S (log2)” value was determined as 0.24. Moreover, the melting temperature with HeLa Kyoto [2] (cell cycle stage: G1/S) worked out at 50.9 °C; in the data set on HeLa Kyoto [2] (cell cycle stage: mitosis), 52.4 °C. Also, the “solubility change mitosis (log2)” value with HeLa Kyoto [3] was 0.34. For the same sequence, the thermal stability score in the data set on HeLa Kyoto [4] (setting [5]) is -1.69; in the data set with HeLa Kyoto [4] (cell cycle stage: mitosis), -2.97.

With “MEESGYESVLCVKPDVHVYRIPPRATNRGYRAAEWQLDQPSWSGRLRITAKGQMAYIKLEDRTSGELFAQAPVDQFPGTAVESVTDSSRYFVIRIEDGNGRRAFIGIGFGDRGDAFDFNVALQDHFKWVKQQCEFAKQAQNPDQGPKLDLGFKEGQTIKLNIANMKKKEGAAGNPRVRPASTGGLSLLPPPPGGKTSTLIPPPGEQLAVGGSLVQPAVAPSSGGAPVPWPQPNPATADIWGDFTKSTGSTSSQTQPGTGWVQF [NECAP2]”, the “solubility in G1/S (log2)” value in the data set with HeLa Kyoto [1] was determined as 0.173. Also, the melting temperature in the data set on HeLa Kyoto [2] (cell cycle stage: G1/S) was 52.6 °C; with HeLa Kyoto [2] (cell cycle stage: mitosis), 52 °C. The “solubility change mitosis (log2)” value in the data set with HeLa Kyoto [3] was -0.251. Moreover, the thermal stability score in the data set on HeLa Kyoto [4] (setting [5]) was -0.264; with HeLa Kyoto [4] (cell cycle stage: mitosis) it was -1.02.

In the case of “MEVKGKKQFTGKSTKTAQEKNRFHKNSDSGSSKTFPTRKVAKEGGPKVTSRNFEKSITKLGKKGVKQFKNKQQGDKSPKNKFQPANKFNKKRKFQPDGRSDESAAKKPKWDDFKKKKKELKQSRQLSDKTNYDIVVRAKQMWEILRRKDCDKEKRVKLMSDLQKLIQGKIKTIAFAHDSTRVIQCYIQYGNEEQRKQAFEELRDDLVELSKAKYSRNIVKKFLMYGSKPQIAEIIRSFKGHVRKMLRHAEASAIVEYAYNDKAILEQRNMLTEELYGNTFQLYKSADHRTLDKVLEVQPEKLELIMDEMKQILTPMAQKEAVIKHSLVHKVFLDFFTYAPPKLRSEMIEAIREAVVYLAHTHDGARVAMHCLWHGTPKDRKVIVKTMKTYVEKVANGQYSHLVLLAAFDCIDDTKLVKQIIISEIISSLPSIVNDKYGRKVLLYLLSPRDPAHTVREIIEVLQKGDGNAHSKKDTEVRRRELLESISPALLSYLQEHAQEVVLDKSACVLVSDILGSATGDVQPTMNAIASLAATGLHPGGKDGELHIAEHPAGHLVLKWLIEQDKKMKENGREGCFAKTLVEHVGMKNLKSWASVNRGAIILSSLLQSCDLEVANKVKAALKSLIPTLEKTKSTSKGIEILLEKLST [PUM3]”, in the data set on HeLa Kyoto [1], the “solubility in G1/S (log2)” value is -1.05. Besides, the melting temperature in the data set on HeLa Kyoto [2] (cell cycle stage: G1/S) came out at 46.6 °C; in the data set with HeLa Kyoto [2] (cell cycle stage: mitosis), 50 °C. Further, the “solubility change mitosis (log2)” value with HeLa Kyoto [3] amounted to 0.758. The thermal stability score in the data set with HeLa Kyoto [4] (setting [5]) came out at 1.46; with HeLa Kyoto [4] (cell cycle stage: mitosis), 3.65.

In the case of “MELGSCLEGGREAAEEEGEPEVKKRRLLCVEFASVASCDAAVAQCFLAENDWEMERALNSYFEPPVEESALERRPETISEPKTYVDLTNEETTDSTTSKISPSEDTQQENGSMFSLITWNIDGLDLNNLSERARGVCSYLALYSPDVIFLQEVIPPYYSYLKKRSSNYEIITGHEEGYFTAIMLKKSRVKLKSQEIIPFPSTKMMRNLLCVHVNVSGNELCLMTSHLESTRGHAAERMNQLKMVLKKMQEAPESATVIFAGDTNLRDREVTRCGGLPNNIVDVWEFLGKPKHCQYTWDTQMNSNLGITAACKLRFDRIFFRAAAEEGHIIPRSLDLLGLEKLDCGRFPSDHWGLLCNLDIIL [TDP2]”, in the data set with HeLa Kyoto [1], the “solubility in G1/S (log2)” value was determined as 0.116. Besides, the melting temperature with HeLa Kyoto [2] (cell cycle stage: G1/S) came out at 49.7 °C; in the data set on HeLa Kyoto [2] (cell cycle stage: mitosis), 51.7 °C. In the data set on HeLa Kyoto [3], the “solubility change mitosis (log2)” value was -0.193. Further, the thermal stability score with HeLa Kyoto [4] (setting [5]) is -0.731; in the data set with HeLa Kyoto [4] (cell cycle stage: mitosis), -0.039.

Turning to “MKFAEHLSAHITPEWRKQYIQYEAFKDMLYSAQDQAPSVEVTDEDTVKRYFAKFEEKFFQTCEKELAKINTFYSEKLAEAQRRFATLQNELQSSLDAQKESTGVTTLRQRRKPVFHLSHEERVQHRNIKDLKLAFSEFYLSLILLQNYQNLNFTGFRKILKKHDKILETSRGADWRVAHVEVAPFYTCKKINQLISETEAVVTNELEDGDRQKAMKRLRVPPLGAAQPAPAWTTFRVGLFCGIFIVLNITLVLAAVFKLETDRSIWPLIRIYRGGFLLIEFLFLLGINTYGWRQAGVNHVLIFELNPRSNLSHQHLFEIAGFLGILWCLSLLACFFAPISVIPTYVYPLALYGFMVFFLINPTKTFYYKSRFWLLKLLFRVFTAPFHKVGFADFWLADQLNSLSVILMDLEYMICFYSLELKWDESKGLLPNNSEESGICHKYTYGVRAIVQCIPAWLRFIQCLRRYRDTKRAFPHLVNAGKYSTTFFMVTFAALYSTHKERGHSDTMVFFYLWIVFYIISSCYTLIWDLKMDWGLFDKNAGENTFLREEIVYPQKAYYYCAIIEDVILRFAWTIQISITSTTLLPHSGDIIATVFAPLEVFRRFVWNFFRLENEHLNNCGEFRAVRDISVAPLNADDQTLLEQMMDQDDGVRNRQKNRSWKYNQSISLRRPRLASQSKARDTKVLIEDTDDEANT [XPR1]”, in the data set with HeLa Kyoto [1], the “solubility in G1/S (log2)” value was -0.193. The melting temperature was found to be 52.2 °C with HeLa Kyoto [2] (cell cycle stage: G1/S) and 51.1 °C with HeLa Kyoto [2] (cell cycle stage: mitosis). In the data set with HeLa Kyoto [3], the “solubility change mitosis (log2)” value is -0.121. In addition, the thermal stability score was -0.783 in the data set on HeLa Kyoto [4] (setting [5]) and -1.57 with HeLa Kyoto [4] (cell cycle stage: mitosis).

Take “MFRRKLTALDYHNPAGFNCKDETEFRNFIVWLEDQKIRHYKIEDRGNLRNIHSSDWPKFFEKYLRDVNCPFKIQDRQEAIDWLLGLAVRLEYGDNAEKYKDLVPDNSKTADNATKNAEPLINLDVNNPDFKAGVMALANLLQIQRHDDYLVMLKAIRILVQERLTQDAVAKANQTKEGLPVALDKHILGFDTGDAVLNEAAQILRLLHIEELRELQTKINEAIVAVQAIIADPKTDHRLGKVGR [C14ORF166]”: in the data set with HeLa Kyoto [1], the “solubility in G1/S (log2)” value turned out to be 0.0935. Further, the melting temperature was determined as 50.1 °C in the data set on HeLa Kyoto [2] (cell cycle stage: G1/S) and 51.3 °C in the data set with HeLa Kyoto [2] (cell cycle stage: mitosis). The “solubility change mitosis (log2)” value in the data set with HeLa Kyoto [3] was determined as 0.329. The thermal stability score is -1.08 with HeLa Kyoto [4] (setting [5]) and -0.0878 with HeLa Kyoto [4] (cell cycle stage: mitosis).
